Reference: the supplement of paper PMC9112550, “Optimization of the antimicrobial peptide Bac7 by deep mutational scanning” (BMC Biology, 2022)

What follows are sequences tested on Escherichia coli TOP10 (assay: shrunken log2 fold change of peptide-encoding DNA abundance (4.5 h post-induction vs induction); higher = less antimicrobial activity (less host growth inhibition)). Conditions: time post-induction: 4.5 h; library: site-saturation at positions 5, 18, 19, 20.
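Further: peptides expressed intracellularly from a pBAD plasmid library in pooled LB shake-flask culture, induced with 0.3% L-arabinose, DNA abundance read by NGS, three biological replicates, DESeq2 with apeglm shrinkage.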

Q: RRIRMRPPRLPRPRPRPEGKPRP was tested. Which “shrunken log2 fold change” value did it give?
A: 3.36

Q: For RRIRHRPPRLPRPRPRPLICPRP, which “shrunken log2 fold change” value is on record?
A: -0.493

Q: For RRIRKRPPRLPRPRPRPVDKPRP, which “shrunken log2 fold change” value is on record?
A: 0.0581

Q: With RRIRYRPPRLPRPRPRPVCAPRP as the sequence, how does the “shrunken log2 fold change” value read?
A: -0.232

Q: RRIRTRPPRLPRPRPRPKDWPRP was tested. Which “shrunken log2 fold change” value did it give?
A: 0.358

Q: How did the “shrunken log2 fold change” value turn out when RRIRERPPRLPRPRPRPDAHPRP was run?
A: -0.308

Q: Which “shrunken log2 fold change” value does the source give for RRIRIRPPRLPRPRPRPEDFPRP here?
A: 0.00408

Q: How did the “shrunken log2 fold change” value turn out when RRIRKRPPRLPRPRPRPCKDPRP was run?
A: 0.0741

Q: For RRIRPRPPRLPRPRPRPYDQPRP, which “shrunken log2 fold change” value is on record?
A: -0.15

Q: With RRIRLRPPRLPRPRPRPYYQPRP as the sequence, how does the “shrunken log2 fold change” value read?
A: -0.0534

Q: For RRIRWRPPRLPRPRPRPQWKPRP, which “shrunken log2 fold change” value is on record?
A: -0.17

Q: How did the “shrunken log2 fold change” value turn out when RRIRDRPPRLPRPRPRPFMGPRP was run?
A: -0.27

Q: Which “shrunken log2 fold change” value does the source give for RRIRSRPPRLPRPRPRPCDDPRP here?
A: 0.161

Q: Which “shrunken log2 fold change” value does the source give for RRIRARPPRLPRPRPRPKIRPRP here?
A: 0.379

Q: With RRIRTRPPRLPRPRPRPLMYPRP as the sequence, how does the “shrunken log2 fold change” value read?
A: -0.736

Q: Which “shrunken log2 fold change” value does the source give for RRIRNRPPRLPRPRPRPMFKPRP here?
A: -0.386

Q: Which “shrunken log2 fold change” value does the source give for RRIRQRPPRLPRPRPRPCAFPRP here?
A: -0.254

Q: Which “shrunken log2 fold change” value does the source give for RRIRVRPPRLPRPRPRPGGTPRP here?
A: 0.0237

Q: How did the “shrunken log2 fold change” value turn out when RRIRVRPPRLPRPRPRPESVPRP was run?
A: -0.204

Q: Which “shrunken log2 fold change” value does the source give for RRIRSRPPRLPRPRPRPRLNPRP here?
A: 0.15

Q: RRIRFRPPRLPRPRPRPNWFPRP was tested. Which “shrunken log2 fold change” value did it give?
A: 0.0383

Q: With RRIRNRPPRLPRPRPRPMCMPRP as the sequence, how does the “shrunken log2 fold change” value read?
A: -0.106

Q: With RRIRWRPPRLPRPRPRPWMYPRP as the sequence, how does the “shrunken log2 fold change” value read?
A: -0.02

Q: With RRIRTRPPRLPRPRPRPFMRPRP as the sequence, how does the “shrunken log2 fold change” value read?
A: -0.0135

Q: RRIRCRPPRLPRPRPRPDAHPRP was tested. Which “shrunken log2 fold change” value did it give?
A: -0.0835

Q: With RRIRGRPPRLPRPRPRPTKFPRP as the sequence, how does the “shrunken log2 fold change” value read?
A: 0.458

Q: Which “shrunken log2 fold change” value does the source give for RRIRKRPPRLPRPRPRPFWPPRP here?
A: 0.537

Q: RRIRPRPPRLPRPRPRPRPWPRP was tested. Which “shrunken log2 fold change” value did it give?
A: 0.212

Q: How did the “shrunken log2 fold change” value turn out when RRIRGRPPRLPRPRPRPLCMPRP was run?
A: 0.605

Q: For RRIRCRPPRLPRPRPRPESYPRP, which “shrunken log2 fold change” value is on record?
A: -0.336

Q: With RRIRHRPPRLPRPRPRPTSMPRP as the sequence, how does the “shrunken log2 fold change” value read?
A: -0.0792

Q: How did the “shrunken log2 fold change” value turn out when RRIRYRPPRLPRPRPRPKKFPRP was run?
A: -0.0477

Q: With RRIRDRPPRLPRPRPRPGRGPRP as the sequence, how does the “shrunken log2 fold change” value read?
A: 0.725

Q: Which “shrunken log2 fold change” value does the source give for RRIRSRPPRLPRPRPRPENRPRP here?
A: -0.114

Q: How did the “shrunken log2 fold change” value turn out when RRIRARPPRLPRPRPRPATGPRP was run?
A: 0.318

Q: How did the “shrunken log2 fold change” value turn out when RRIRSRPPRLPRPRPRPYRSPRP was run?
A: -0.47

Q: Which “shrunken log2 fold change” value does the source give for RRIRGRPPRLPRPRPRPYVHPRP here?
A: -0.142

Q: How did the “shrunken log2 fold change” value turn out when RRIRHRPPRLPRPRPRPCSHPRP was run?
A: -0.0787

Q: RRIRTRPPRLPRPRPRPFGEPRP was tested. Which “shrunken log2 fold change” value did it give?
A: -0.101

Q: How did the “shrunken log2 fold change” value turn out when RRIRRRPPRLPRPRPRPYLCPRP was run?
A: -0.404

Q: RRIRSRPPRLPRPRPRPHQTPRP was tested. Which “shrunken log2 fold change” value did it give?
A: -0.066

Q: Which “shrunken log2 fold change” value does the source give for RRIRMRPPRLPRPRPRPYMGPRP here?
A: -0.0411

Q: With RRIRWRPPRLPRPRPRPNENPRP as the sequence, how does the “shrunken log2 fold change” value read?
A: -0.0342

Q: Which “shrunken log2 fold change” value does the source give for RRIRMRPPRLPRPRPRPETQPRP here?
A: 0.359

Q: Which “shrunken log2 fold change” value does the source give for RRIRSRPPRLPRPRPRPCMDPRP here?
A: -0.0717

Q: RRIRQRPPRLPRPRPRPQMGPRP was tested. Which “shrunken log2 fold change” value did it give?
A: -0.553

Q: How did the “shrunken log2 fold change” value turn out when RRIRCRPPRLPRPRPRPFADPRP was run?
A: -0.45

Q: With RRIRVRPPRLPRPRPRPNHTPRP as the sequence, how does the “shrunken log2 fold change” value read?
A: -0.402

Q: Which “shrunken log2 fold change” value does the source give for RRIRARPPRLPRPRPRPYSSPRP here?
A: -0.28

Q: How did the “shrunken log2 fold change” value turn out when RRIRARPPRLPRPRPRPETPPRP was run?
A: 1.65

Q: Which “shrunken log2 fold change” value does the source give for RRIRNRPPRLPRPRPRPIQNPRP here?
A: -0.139

Q: RRIRHRPPRLPRPRPRPYKCPRP was tested. Which “shrunken log2 fold change” value did it give?
A: -0.0105

Q: With RRIRNRPPRLPRPRPRPMNAPRP as the sequence, how does the “shrunken log2 fold change” value read?
A: -0.281

Q: How did the “shrunken log2 fold change” value turn out when RRIRTRPPRLPRPRPRPWDHPRP was run?
A: -0.155

Q: RRIRCRPPRLPRPRPRPRRQPRP was tested. Which “shrunken log2 fold change” value did it give?
A: 0.403

Q: How did the “shrunken log2 fold change” value turn out when RRIRDRPPRLPRPRPRPDRTPRP was run?
A: 0.0519

Q: How did the “shrunken log2 fold change” value turn out when RRIRLRPPRLPRPRPRPIVMPRP was run?
A: -0.618

Q: How did the “shrunken log2 fold change” value turn out when RRIRIRPPRLPRPRPRPLHDPRP was run?
A: 0.181

Q: How did the “shrunken log2 fold change” value turn out when RRIRHRPPRLPRPRPRPHVIPRP was run?
A: -0.302

Q: RRIRQRPPRLPRPRPRPWVEPRP was tested. Which “shrunken log2 fold change” value did it give?
A: 0.0249

Q: For RRIRTRPPRLPRPRPRPQCSPRP, which “shrunken log2 fold change” value is on record?
A: 0.0299

Q: With RRIRLRPPRLPRPRPRPHVCPRP as the sequence, how does the “shrunken log2 fold change” value read?
A: -0.247

Q: RRIRYRPPRLPRPRPRPTTPPRP was tested. Which “shrunken log2 fold change” value did it give?
A: -0.437

Q: RRIRTRPPRLPRPRPRPQTKPRP was tested. Which “shrunken log2 fold change” value did it give?
A: 0.0553

Q: Which “shrunken log2 fold change” value does the source give for RRIRDRPPRLPRPRPRPMKHPRP here?
A: -0.245

Q: How did the “shrunken log2 fold change” value turn out when RRIRLRPPRLPRPRPRPTSGPRP was run?
A: 0.0882

Q: Which “shrunken log2 fold change” value does the source give for RRIRNRPPRLPRPRPRPDPYPRP here?
A: -0.319

Q: With RRIRKRPPRLPRPRPRPDYFPRP as the sequence, how does the “shrunken log2 fold change” value read?
A: 0.0333

Q: Which “shrunken log2 fold change” value does the source give for RRIRYRPPRLPRPRPRPVSHPRP here?
A: -0.00492

Q: For RRIRVRPPRLPRPRPRPPIWPRP, which “shrunken log2 fold change” value is on record?
A: -0.109

Q: For RRIRARPPRLPRPRPRPVVMPRP, which “shrunken log2 fold change” value is on record?
A: 0.282

Q: With RRIRTRPPRLPRPRPRPASIPRP as the sequence, how does the “shrunken log2 fold change” value read?
A: -0.13

Q: Which “shrunken log2 fold change” value does the source give for RRIRQRPPRLPRPRPRPLARPRP here?
A: 0.26

Q: For RRIRQRPPRLPRPRPRPDVNPRP, which “shrunken log2 fold change” value is on record?
A: -0.142

Q: How did the “shrunken log2 fold change” value turn out when RRIRMRPPRLPRPRPRPTGQPRP was run?
A: 0.636
